In patent US20110293610A1 (published 2011):
Substitutions are numbered along the chain they refer to.

T1: Fas ligand (human, UniProt P48023 134-281, limits assumed)
T1 sequence (looked up): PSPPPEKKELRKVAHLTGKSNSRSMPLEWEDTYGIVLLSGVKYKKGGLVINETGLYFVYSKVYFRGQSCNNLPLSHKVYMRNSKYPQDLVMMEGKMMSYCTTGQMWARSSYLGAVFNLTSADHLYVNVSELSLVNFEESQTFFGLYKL

T2: TNF-beta (human, UniProt P01374 35-205)
T2 construct: also called TNFβ; Tumour Necrosis Factor-beta
T2 sequence (looked up): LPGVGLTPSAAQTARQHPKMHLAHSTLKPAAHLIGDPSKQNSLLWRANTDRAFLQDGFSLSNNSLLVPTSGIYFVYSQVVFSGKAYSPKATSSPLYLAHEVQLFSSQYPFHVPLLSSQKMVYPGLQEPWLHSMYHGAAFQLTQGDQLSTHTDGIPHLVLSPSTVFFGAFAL

B1: I050B11 (scFv)
scFv: QVQLVQSGVEVKKPGASVKVSCKASGYTFSNHGISWVRQAPGQGLEWVGWISGHDDSTKYAQKFQGRVTMTADTSTSTAYIELRSLKSDDTAVYYCARPFYDTLTSYVFQYFDHWGQGTMVTVSSGGGGSGGGGSGGGGSALETTLTQSPDTLSLSPGERATLSCRASQSVTRGWVAWYQQKPGQAPRLLMYGTSRRATGVPDRFSGSESGTDFTLTISRLEPEDFAVYYCQQYATSPRTFGQGTRLEIKR
B2: I031C03 (scFv)
scFv: QMQLVQSGAEVRKPGSSVKVSCKASGGSFSSHVFSWVRQAPGQGLEWVGGITPKFATPNYAQKFQHRVTITADELTRTVFMDLSGLRSEDTAVYYCARGYDSSAFRAFDIWGQGTLVTVSSGGGGSGGGGSGGGGSAQSVLTQPPSVSAAPGQKVTISCSGSSSNIGNNYVSWYQQFPGTAPKLLIYDNNNRPSGVPDRFSGSKSGTSATLGITGLQTGDEADYYCGTWDRSLSVVVFGGGTKVTVLG
B3: I031G08 (scFv)
scFv: QVQLVQSGAEVKKPGSSVKVSCRASGGSFIDDSINWLRQAPGQGLEWVGGTIPLANRANYAQKFRDRATITADELTATVFLELTSLRSDDTALYYCARSSPPKWYDALTGHSSYHSAMDVWGRGTLVTVSSGGGGSGGGGSGGGGSAQSVLTQPPSASGTPGQRVTISCSGTNSNIGGNTVNWYQQLPGTAPRLLIYSNNQRPSGVPDRFSGSKSGTSASLAISGLQSEDEADYYCAARDDRLNAHVVFGGGTKVTVLG
B4: I050A12 (scFv)
scFv: EVQLVQSGAEVKKPGSSVKVSCKASGDTFSHYAINWVRQAPGQGLEWMGGIIPTFNAVKYAQKFQGRATITADGSTSTAYMELNSLRSEDTAVYYCATAPYDLLTHYFHYFDYWGQGTMVTVSSGGGGSGGGGSGGGGSALSSELTQDPAVSVTLGQTVRITCQGDSLRSYYPSWYQQKPGQAPVLVIYPKNIRPSGIPDRFSGSSSGNTASLTITGAQAEDEADYYCNSRASSGNHYVFATGTKLTVLG
B5: I021B05 (scFv)
scFv: QVQQSGADVKKPGGSLRLSCAASGFTFSSYSMNWVRQAPGKGLEWVSSISSSSSYIYYADSVKGRFTISRDNAKNSLYLQMNSLRAEDTAVYYCAREGGNYDILTGYYIGNGAFDIWGRGTMVTVSSGGGGSGGGGSGGGGSQSVLTQPASVSGSPGQSITISCTGTSSDVGGYNYVSWYQQHPGKAPKLMIYEGSKRPSGVSNRFSGSKSGNTASLTISGLQAEDEADYYCSSYTTRSTRVFGGGTKLTVLG
B6: I031F02 (scFv)
scFv: QVQLVQSGAEVRKPGSSVKVSCKASGGSFSSHVFSWVRQAPGQGLEWVGGITPKFATPNYAQKFQHRVTITADELTRTVFMDLSGLRSEDTAVYYCARGYDSSAFRAFDIWGQGTMVTVSSGGGGSGGGGSGGGGSAQSVLTQPPSVSGAPGQRVTISCTGSSSNIGAGYDVQWYQQLPGTAPKLLIHGNNNRPSGVPDRFSGSKSGTSASLAITGLQDEDEADYYCQSYDSSLSFSGYVFGTGTKVTVLG
B7: I031G10 (scFv)
scFv: QVQLVQSGAEVKKPGSSVKVSCRVSGGSFTDDSINWLRQAPGQGLEWVGGTIPLANRANYAQKFRDRVTITADELTATVFLELTSLRSDDTALYYCARSSPPKWYDALTGDSSYHSAMDVWGRGTLVTVSSGGGGSGGGGSGGGGSAQSVVTQPPSVSAAPGQKVTISCSGSTSNIGRNYVSWYQQLPGTATKLLIYDNNKRPSGIPDRFSGSKSGTSATLGITGLQTGDEADYYCGTWDSSLRIYVFGTGTKVTVLG
B8: I012A06 (scFv)
scFv: QVQLQESGPGVVKPSQTLSLTCTVSGVSISSDSYYWSWIRQPAGKGPEWIGRIYPTGSTNYNPSLKSRVTISVDTSKNQFSLQLTSVTAADTAVYYCARGRWDYDLLTGEHLGYYFDYWGRGTLVTVSSGGGGSGGGGSGGGGSALSSELTQDPAVSVALGQTVRITCQGDTLRNYYASWYQQKPGQAPVLVIHSRNNRPSGIPDRFSGSSSGTTASLTITGSQAEDEADYYCNSRDSSGNVIFGGGTKLTVLG
B9: I031C07 (scFv)
scFv: EVQLVQSGAEVKKPGSSVKVSCRASGGSFIDGSINWLRQAPGQGLEWVGGTIPLANRANYAQKFRDRVTITADELTAIVFLELTSLRSDDTALYYCARSSPPRWYDALTGDSSYHSAMDVWGQGTMVTVSSGGGGSGGGGSGGGGSAQSALTQPPSASGSPGQSVTISCSGTSSDIGDSNSVSWYQQHPGKAPKLLIYEVTKRPSGVPDRFAGSRSDNTASLTVSGLQTEDEADYYCSSSAARNHLVFGGGTKVTVLG
B10: I031F09 (scFv)
scFv: QVQLVQSGAEVKKPGASVKVSCTVSGDSFSRHGISWVRQAPGQGLEWMGWISVYNGDTKYAQKVQGRVTMTTDTSTNTVYMELRRLRSDDTAVYYCARDEGRDLLTGYYWPNFFDSWGRGTLVTVSSGGGGSGGGGSGGGGSALSYVLTQPPSASGTPGQRVTISCSGSRPNIGGNTVNWYQQLPGAAPKLLIYSNSQRPSGVPDRFSGSKYGTSASLAISGLQSDDEADYYCAAWDDSLTGPVFGGGTKLTVLG
B11: I031G11 (scFv)
scFv: B10 scFv with A154V, R161K
B12: I028A06 (scFv)
scFv: QVQLVESGGGLIQPGGSLRLSCAASGFSFGSYAMSWIRQAPGKGLEWVSTSTGRGGSTYYADSVKGRFTISRDNAKNSLYLQMNSLRAEDAAVYYCARGGDYDILTGLYYYGMDVWGKGTMVTVSSGGGGSGGGGSGGGGSSYVLTQPPSVSGTPGQRVTISCSGGRSNIGSNTVKWYQQLPGTAPKLLIYGNDQRPSGVPDRFSGSKSGTSASLAITGVQAEDEADYYCQSYDSSLRGSRVFGTGTKVTVLG
B13: I026E03 (scFv)
scFv: EVQLVQSGGEVKRPGASVKVSCKASGYTFSRYGISWVRQAPGQGLEWMGWISAYNGKTSFAEKFQGRVTLTTDTSTTTVDMELRNLRSDDTAVYYCARTDYDILTGYPMGYFDPWGKGTLVTVSSGGGGSGGGGSGGGGSALSSELTQDPAVSVALGQTVKITCQGDSLRSFYAAWYQQKPGQAPILVISGKNNRPSGIPDRFSGSSSGNTASLTITGAQAEDEADYYCNSRDTSGNHYVFGAGTKLTVLG

Molecular target: T3, B Lymphocyte Stimulator, soluble form (human) (human, UniProt Q9Y275 134-285, biotinylated with NHS-biotin where used as biotinylated B Lymphocyte Stimulator)
T3 construct: Coated on plastic, captured on streptavidin plates, amine-coupled to a CM5 chip or free in solution, depending on the assay; also called BLyS; immobilized B Lymphocyte Stimulator
Test: phage competition ELISA

binding result	Binder
binds	B1
binds	B2
binds	B3
binds	B4
binds	B5
binds	B6
binds	B7
binds	B8
binds	B9
binds	B10
binds	B11
binds	B12
binds	B13

Molecular target: T1, Fas ligand
Test: phage ELISA

binding result	Binder
no binding	B1
no binding	B2
no binding	B3
no binding	B4
no binding	B5
no binding	B6
no binding	B7
no binding	B8
no binding	B9
no binding	B10
no binding	B11
no binding	B12
no binding	B13

Molecular target: T2, TNF-beta
Test: phage ELISA

binding result	Binder
no binding	B1
no binding	B2
no binding	B3
no binding	B4
no binding	B5
no binding	B6
no binding	B7
no binding	B8
no binding	B9
no binding	B10
no binding	B11
no binding	B12
no binding	B13

Molecular target: T4, TRAIL (human, UniProt P50591 114-281)
T4 construct: also called TNF-related apoptosis inducing ligand
T4 sequence (P50591 114-281 limits assumed): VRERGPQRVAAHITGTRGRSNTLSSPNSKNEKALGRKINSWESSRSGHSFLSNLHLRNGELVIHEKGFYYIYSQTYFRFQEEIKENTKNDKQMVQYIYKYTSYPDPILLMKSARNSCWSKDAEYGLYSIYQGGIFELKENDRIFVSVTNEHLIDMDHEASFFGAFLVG
Test: phage ELISA

binding result	Binder
no binding	B1
no binding	B2
no binding	B3
no binding	B4
no binding	B5
no binding	B6
no binding	B7
no binding	B8
no binding	B9
no binding	B10
no binding	B11
no binding	B12
no binding	B13

Molecular target: T5, TNF-alpha (human, UniProt P01375 77-233)
T5 construct: also called TNFα; TNF-α
T5 sequence (P01375 77-233 limits assumed): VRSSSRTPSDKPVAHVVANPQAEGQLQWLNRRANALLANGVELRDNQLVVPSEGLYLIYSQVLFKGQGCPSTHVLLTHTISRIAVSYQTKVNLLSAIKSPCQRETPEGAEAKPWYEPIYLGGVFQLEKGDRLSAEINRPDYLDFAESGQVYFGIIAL
Test: phage ELISA

binding result	Binder
no binding	B1
no binding	B2
no binding	B3
no binding	B4
no binding	B5
no binding	B6
no binding	B7
no binding	B8
no binding	B9
no binding	B10
no binding	B11
no binding	B12
no binding	B13

Molecular target: T6, membrane-bound B Lymphocyte Stimulator on U937 plasma membrane preparations (human, UniProt Q9Y275 1-285)
T6 construct: Natural protein in plasma membrane fractions of the human cell line U937 coated on ELISA plates; also called U937 plasma membranes; U937 membranes
Test: phage ELISA

binding result	Binder
binds	B1
binds	B2
binds	B3
binds	B4
binds	B5
binds	B6
binds	B7
binds	B8
binds	B9
binds	B10
binds	B11
binds	B12
binds	B13
